Test results reported in US20200024322A1 (Eli Lilly, published 2020).
Positions count from the first letter of the chain named. Numbered stars: 1 amine (or outer) side, 2 acyl side, 3 side chain; on linkers, the order of the positions; unused ones are H or OH. Square brackets hold non-standard residues; d marks the D form. Side chains are listed from the residue outwards. Ends that are not written are not given here. * marks the point of attachment. C20 diacid = O=C(O)CCCCCCCCCCCCCCCCCCC(=O)*; C18 diacid = O=C(O)CCCCCCCCCCCCCCCCC(=O)*; γGlu = O=C(O)[C@H](CCC(=O)[*:2])N[*:1]; AEEA = NCCOCCOCC(=O)O; Aib = CC(C)(N)C(=O)O

T1: human GIP receptor (human, UniProt P48546 22-466)
T1 construct: whole, on cells; also called hGIPR; hGIP-R
T1 sequence (looked up): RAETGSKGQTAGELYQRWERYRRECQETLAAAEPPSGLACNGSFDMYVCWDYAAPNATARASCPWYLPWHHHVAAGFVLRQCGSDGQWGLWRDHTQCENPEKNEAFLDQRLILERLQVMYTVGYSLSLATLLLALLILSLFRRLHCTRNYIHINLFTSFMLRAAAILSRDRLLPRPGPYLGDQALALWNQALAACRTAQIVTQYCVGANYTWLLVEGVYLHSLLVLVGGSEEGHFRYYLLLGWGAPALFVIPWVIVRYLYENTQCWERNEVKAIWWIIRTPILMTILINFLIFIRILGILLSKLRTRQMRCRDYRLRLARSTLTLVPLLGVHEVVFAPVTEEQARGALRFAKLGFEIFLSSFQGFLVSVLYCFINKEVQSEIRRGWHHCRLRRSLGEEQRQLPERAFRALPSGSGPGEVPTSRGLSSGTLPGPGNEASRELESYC

B1: Example 289 (peptide)
peptide: YXEGTFTSDYSIXLDKKAQXEFIEYLIAGGPSSGAPPPS
modifications: Aib2; αMeL13; K17((2-[2-(2-Amino-ethoxy)-ethoxy]-acetyl)2-(γ-Glu)-CO-(CH2)18-CO2H); Aib20; C-terminal NH2
notes: also called GG-731
B2: Example 331 (peptide)
peptide: B1 peptide with K16E
modifications: Aib2; αMeL13; K17((2-[2-(2-Amino-ethoxy)-ethoxy]-acetyl)2-(γ-Glu)-CO-(CH2)18-CO2H); Aib20; C-terminal NH2
B3: Example 328 (peptide)
peptide: B1 peptide with Y1F, E21A, A28E, G29A
modifications: Aib2; αMeL13; K17((2-[2-(2-Amino-ethoxy)-ethoxy]-acetyl)2-(γ-Glu)-CO-(CH2)16-CO2H); Aib20; C-terminal NH2
B4: Example 338 (peptide)
peptide: B1 peptide with Y1F
modifications: Aib2; αMeL13; K17((2-[2-(2-Amino-ethoxy)-ethoxy]-acetyl)2-(γ-Glu)-CO-(CH2)18-CO2H); Aib20; C-terminal NH2
B5: Example 269 (peptide)
peptide: Y[Aib]EGTFTSDYSILLDEK([AEEA-AEEA-γGlu-C18 diacid])AQ[Aib]AFIEYLIEGG-NH2
modifications: N-terminus assumed
SMILES: CC[C@H](C)[C@H](NC(=O)[C@H](CC(C)C)NC(=O)[C@H](Cc1ccc(O)cc1)NC(=O)[C@H](CCC(=O)O)NC(=O)[C@@H](NC(=O)[C@H](Cc1ccccc1)NC(=O)[C@H](C)NC(=O)C(C)(C)NC(=O)[C@H](CCC(N)=O)NC(=O)[C@H](C)NC(=O)[C@H](CCCCNC(=O)COCCOCCNC(=O)COCCOCCNC(=O)CC[C@H](NC(=O)CCCCCCCCCCCCCCCCC(=O)O)C(=O)O)NC(=O)[C@H](CCC(=O)O)NC(=O)[C@H](CC(=O)O)NC(=O)[C@H](CC(C)C)NC(=O)[C@H](CC(C)C)NC(=O)[C@@H](NC(=O)[C@H](CO)NC(=O)[C@H](Cc1ccc(O)cc1)NC(=O)[C@H](CC(=O)O)NC(=O)[C@H](CO)NC(=O)[C@@H](NC(=O)[C@H](Cc1ccccc1)NC(=O)[C@@H](NC(=O)CNC(=O)[C@H](CCC(=O)O)NC(=O)C(C)(C)NC(=O)[C@@H](N)Cc1ccc(O)cc1)[C@@H](C)O)[C@@H](C)O)[C@@H](C)CC)[C@@H](C)CC)C(=O)N[C@@H](CCC(=O)O)C(=O)NCC(=O)NCC(N)=O
B6: Example 297 (peptide)
peptide: Y[Aib]EGTFTSDYSILLDKK([AEEA-AEEA-γGlu-C18 diacid])AQ[Aib]EFIEYLIAGG-NH2
modifications: N-terminus assumed
SMILES: CC[C@H](C)[C@H](NC(=O)[C@H](CC(C)C)NC(=O)[C@H](Cc1ccc(O)cc1)NC(=O)[C@H](CCC(=O)O)NC(=O)[C@@H](NC(=O)[C@H](Cc1ccccc1)NC(=O)[C@H](CCC(=O)O)NC(=O)C(C)(C)NC(=O)[C@H](CCC(N)=O)NC(=O)[C@H](C)NC(=O)[C@H](CCCCNC(=O)COCCOCCNC(=O)COCCOCCNC(=O)CC[C@H](NC(=O)CCCCCCCCCCCCCCCCC(=O)O)C(=O)O)NC(=O)[C@H](CCCCN)NC(=O)[C@H](CC(=O)O)NC(=O)[C@H](CC(C)C)NC(=O)[C@H](CC(C)C)NC(=O)[C@@H](NC(=O)[C@H](CO)NC(=O)[C@H](Cc1ccc(O)cc1)NC(=O)[C@H](CC(=O)O)NC(=O)[C@H](CO)NC(=O)[C@@H](NC(=O)[C@H](Cc1ccccc1)NC(=O)[C@@H](NC(=O)CNC(=O)[C@H](CCC(=O)O)NC(=O)C(C)(C)NC(=O)[C@@H](N)Cc1ccc(O)cc1)[C@@H](C)O)[C@@H](C)O)[C@@H](C)CC)[C@@H](C)CC)C(=O)N[C@@H](C)C(=O)NCC(=O)NCC(N)=O
B7: Example 271 (peptide)
peptide: Y[Aib]EGTFTSDYSILLDKK([AEEA-AEEA-γGlu-C18 diacid])AQ[Aib]EFIEYLIEGG-NH2
modifications: N-terminus assumed
SMILES: CC[C@H](C)[C@H](NC(=O)[C@H](CC(C)C)NC(=O)[C@H](Cc1ccc(O)cc1)NC(=O)[C@H](CCC(=O)O)NC(=O)[C@@H](NC(=O)[C@H](Cc1ccccc1)NC(=O)[C@H](CCC(=O)O)NC(=O)C(C)(C)NC(=O)[C@H](CCC(N)=O)NC(=O)[C@H](C)NC(=O)[C@H](CCCCNC(=O)COCCOCCNC(=O)COCCOCCNC(=O)CC[C@H](NC(=O)CCCCCCCCCCCCCCCCC(=O)O)C(=O)O)NC(=O)[C@H](CCCCN)NC(=O)[C@H](CC(=O)O)NC(=O)[C@H](CC(C)C)NC(=O)[C@H](CC(C)C)NC(=O)[C@@H](NC(=O)[C@H](CO)NC(=O)[C@H](Cc1ccc(O)cc1)NC(=O)[C@H](CC(=O)O)NC(=O)[C@H](CO)NC(=O)[C@@H](NC(=O)[C@H](Cc1ccccc1)NC(=O)[C@@H](NC(=O)CNC(=O)[C@H](CCC(=O)O)NC(=O)C(C)(C)NC(=O)[C@@H](N)Cc1ccc(O)cc1)[C@@H](C)O)[C@@H](C)O)[C@@H](C)CC)[C@@H](C)CC)C(=O)N[C@@H](CCC(=O)O)C(=O)NCC(=O)NCC(N)=O
B8: Example 299 (peptide)
peptide: Y[Aib]EGTFTSDYSILLDKK([AEEA-AEEA-γGlu-C18 diacid])AQ[Aib]AFLEYLIEGGPSSG-NH2
modifications: N-terminus assumed
SMILES: CC[C@H](C)[C@H](NC(=O)[C@H](CC(C)C)NC(=O)[C@H](Cc1ccc(O)cc1)NC(=O)[C@H](CCC(=O)O)NC(=O)[C@H](CC(C)C)NC(=O)[C@H](Cc1ccccc1)NC(=O)[C@H](C)NC(=O)C(C)(C)NC(=O)[C@H](CCC(N)=O)NC(=O)[C@H](C)NC(=O)[C@H](CCCCNC(=O)COCCOCCNC(=O)COCCOCCNC(=O)CC[C@H](NC(=O)CCCCCCCCCCCCCCCCC(=O)O)C(=O)O)NC(=O)[C@H](CCCCN)NC(=O)[C@H](CC(=O)O)NC(=O)[C@H](CC(C)C)NC(=O)[C@H](CC(C)C)NC(=O)[C@@H](NC(=O)[C@H](CO)NC(=O)[C@H](Cc1ccc(O)cc1)NC(=O)[C@H](CC(=O)O)NC(=O)[C@H](CO)NC(=O)[C@@H](NC(=O)[C@H](Cc1ccccc1)NC(=O)[C@@H](NC(=O)CNC(=O)[C@H](CCC(=O)O)NC(=O)C(C)(C)NC(=O)[C@@H](N)Cc1ccc(O)cc1)[C@@H](C)O)[C@@H](C)O)[C@@H](C)CC)C(=O)N[C@@H](CCC(=O)O)C(=O)NCC(=O)NCC(=O)N1CCC[C@H]1C(=O)N[C@@H](CO)C(=O)N[C@@H](CO)C(=O)NCC(N)=O
B9: Example 320 (peptide)
peptide: Y[Aib]EGTFTSDYSILLDKK([AEEA-AEEA-γGlu-C18 diacid])AQ[Aib]DFIEYLIEGGPSSG-NH2
modifications: N-terminus assumed
SMILES: CC[C@H](C)[C@H](NC(=O)[C@H](CC(C)C)NC(=O)[C@H](Cc1ccc(O)cc1)NC(=O)[C@H](CCC(=O)O)NC(=O)[C@@H](NC(=O)[C@H](Cc1ccccc1)NC(=O)[C@H](CC(=O)O)NC(=O)C(C)(C)NC(=O)[C@H](CCC(N)=O)NC(=O)[C@H](C)NC(=O)[C@H](CCCCNC(=O)COCCOCCNC(=O)COCCOCCNC(=O)CC[C@H](NC(=O)CCCCCCCCCCCCCCCCC(=O)O)C(=O)O)NC(=O)[C@H](CCCCN)NC(=O)[C@H](CC(=O)O)NC(=O)[C@H](CC(C)C)NC(=O)[C@H](CC(C)C)NC(=O)[C@@H](NC(=O)[C@H](CO)NC(=O)[C@H](Cc1ccc(O)cc1)NC(=O)[C@H](CC(=O)O)NC(=O)[C@H](CO)NC(=O)[C@@H](NC(=O)[C@H](Cc1ccccc1)NC(=O)[C@@H](NC(=O)CNC(=O)[C@H](CCC(=O)O)NC(=O)C(C)(C)NC(=O)[C@@H](N)Cc1ccc(O)cc1)[C@@H](C)O)[C@@H](C)O)[C@@H](C)CC)[C@@H](C)CC)C(=O)N[C@@H](CCC(=O)O)C(=O)NCC(=O)NCC(=O)N1CCC[C@H]1C(=O)N[C@@H](CO)C(=O)N[C@@H](CO)C(=O)NCC(N)=O
B10: Example 319 (peptide)
peptide: Y[Aib]EGTFTSDYSILLDKK([AEEA-AEEA-γGlu-C20 diacid])AQ[Aib]EFIEYLIAGGPSSGAPPPS-NH2
modifications: N-terminus assumed
SMILES: CC[C@H](C)[C@H](NC(=O)[C@H](CC(C)C)NC(=O)[C@H](Cc1ccc(O)cc1)NC(=O)[C@H](CCC(=O)O)NC(=O)[C@@H](NC(=O)[C@H](Cc1ccccc1)NC(=O)[C@H](CCC(=O)O)NC(=O)C(C)(C)NC(=O)[C@H](CCC(N)=O)NC(=O)[C@H](C)NC(=O)[C@H](CCCCNC(=O)COCCOCCNC(=O)COCCOCCNC(=O)CC[C@H](NC(=O)CCCCCCCCCCCCCCCCCCC(=O)O)C(=O)O)NC(=O)[C@H](CCCCN)NC(=O)[C@H](CC(=O)O)NC(=O)[C@H](CC(C)C)NC(=O)[C@H](CC(C)C)NC(=O)[C@@H](NC(=O)[C@H](CO)NC(=O)[C@H](Cc1ccc(O)cc1)NC(=O)[C@H](CC(=O)O)NC(=O)[C@H](CO)NC(=O)[C@@H](NC(=O)[C@H](Cc1ccccc1)NC(=O)[C@@H](NC(=O)CNC(=O)[C@H](CCC(=O)O)NC(=O)C(C)(C)NC(=O)[C@@H](N)Cc1ccc(O)cc1)[C@@H](C)O)[C@@H](C)O)[C@@H](C)CC)[C@@H](C)CC)C(=O)N[C@@H](C)C(=O)NCC(=O)NCC(=O)N1CCC[C@H]1C(=O)N[C@@H](CO)C(=O)N[C@@H](CO)C(=O)NCC(=O)N[C@@H](C)C(=O)N1CCC[C@H]1C(=O)N1CCC[C@H]1C(=O)N1CCC[C@H]1C(=O)N[C@@H](CO)C(N)=O

Each binder was assayed against T2, human GLP-1 receptor (human, UniProt P43220 24-463) (assay: [125I]-GLP-1 competition SPA, hGLP-1R membranes).
T2 construct: whole, on cells; also called hGLP-1R; hGLP1R
Experimental: The binding buffer contains 25 mM HEPES, pH 7.4, 2.5 mM CaCl₂, 1 mM MgCl₂, 0.1% (w/v) bacitracin, 0.003% (w/v) TWEEN®-20, and Roche Complete™ Protease Inhibitors without EDTA.
(§1) Data are analyzed using four-parameter (curve maximum, curve minimum, IC₅₀, Hill slope) nonlinear regression routines (Genedata Screener, version 12.0.4, Genedata AG, Basal, Switzerland). […] Values for Kᵢ are reported as the geometric mean, with error expressed as the standard error of the mean (SEM) and n is equal to the number of independent replicates (determined in assays performed on different days). Geometric Means are calculated as follows: […]
B1 showed a Ki of 2.63 nM.
For B2, the Ki was 11.4 nM.
B3 gave a Ki of 3.98 nM.
Work on B4 yielded a Ki of 3.23 nM.
Binder B5 has a Ki of 7.1 nM.
Work on B6 yielded a Ki of 2.98 nM.
B7 was tested, and the Ki was 5.09 nM.
For B8, the Ki was 54.3 nM.
For B9, the Ki was 5.17 nM.
In the case of B10, the Ki is reported as 3.61 nM.

The binders below were run against T1, human GIP receptor (assay: [125I]-GIP competition SPA, hGIPR membranes).
Experimental: The binding buffer contains 25 mM HEPES, pH 7.4, 2.5 mM CaCl₂, 1 mM MgCl₂, 0.1% (w/v) bacitracin, 0.003% (w/v) TWEEN®-20, and Roche Complete™ Protease Inhibitors without EDTA. […] Plates are sealed and mixed on a plate shaker (setting 6) for 1 minute and read with a PerkinElmer Trilux MicroBeta® scintillation counter after 2.5 to 12 hours of incubation/settling time at room temperature.
as §1
In the case of B1, the Ki is reported as 0.0457 nM.
With B2 the Ki was 0.0851 nM.
In the case of B3, the Ki is reported as 0.136 nM.
For B4, the Ki was 0.0831 nM.
B5 showed a Ki of 0.152 nM.
B6 was tested, and the Ki was 0.0958 nM.
For B7, the Ki was 0.107 nM.
Binder B8 has a Ki of 0.734 nM.
With B9 the Ki was 0.136 nM.
Binder B10 has a Ki of 0.0349 nM.
